# T1: calpain-2 (Homo sapiens, UniProt P17655)
# T1 sequence (P17655 1-700): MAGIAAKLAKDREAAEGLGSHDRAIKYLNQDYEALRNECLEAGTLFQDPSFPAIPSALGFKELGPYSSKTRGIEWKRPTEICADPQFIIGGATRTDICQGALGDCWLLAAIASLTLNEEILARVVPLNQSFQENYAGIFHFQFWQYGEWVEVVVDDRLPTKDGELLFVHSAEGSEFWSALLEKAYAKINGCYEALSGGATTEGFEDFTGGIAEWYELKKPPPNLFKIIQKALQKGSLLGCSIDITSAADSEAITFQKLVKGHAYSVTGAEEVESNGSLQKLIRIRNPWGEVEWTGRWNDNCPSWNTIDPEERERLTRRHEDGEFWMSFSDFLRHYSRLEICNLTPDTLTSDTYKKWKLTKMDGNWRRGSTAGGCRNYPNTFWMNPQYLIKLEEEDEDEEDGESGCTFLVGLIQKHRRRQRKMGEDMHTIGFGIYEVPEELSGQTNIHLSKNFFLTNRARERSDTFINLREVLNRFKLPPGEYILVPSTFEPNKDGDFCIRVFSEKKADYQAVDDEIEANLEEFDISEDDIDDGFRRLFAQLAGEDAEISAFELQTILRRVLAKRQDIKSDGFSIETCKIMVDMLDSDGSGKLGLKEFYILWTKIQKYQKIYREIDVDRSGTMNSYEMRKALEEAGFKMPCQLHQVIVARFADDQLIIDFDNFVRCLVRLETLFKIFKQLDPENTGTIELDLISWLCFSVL
# T1 sequence (P04632 1-268 partner): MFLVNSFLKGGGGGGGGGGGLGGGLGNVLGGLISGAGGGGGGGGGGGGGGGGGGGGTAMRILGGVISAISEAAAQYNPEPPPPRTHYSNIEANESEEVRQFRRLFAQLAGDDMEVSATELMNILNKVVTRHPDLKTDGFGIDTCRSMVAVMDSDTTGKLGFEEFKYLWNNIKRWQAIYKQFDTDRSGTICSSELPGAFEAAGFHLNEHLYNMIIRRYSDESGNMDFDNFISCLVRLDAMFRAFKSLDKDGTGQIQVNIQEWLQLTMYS
# B1: Stargazin gamma-2: protein involved in AMPA receptor trafficking, calpain-2 specific substrate; cytoplasmic C-terminus (protein, UniProt Q9Y698 1-323, looked up)
# Voltage-dependent calcium …: MGLFDRGVQMLLTTVGAFAAFSLMTIAVGTDYWLYSRGVCKTKSVSENETSKKNEEVMTHSGLWRTCCLEGNFKGLCKQIDHFPEDADYEADTAEYFLRAVRASSIFPILSVILLFMGGLCIAASEFYKTRHNIILSAGIFFVSAGLSNIIGIIVYISANAGDPSKSDSKKNSYSYGWSFYFGALSFIIAEMVGVLAVHMFIDRHKQLRATARATDYLQASAITRIPSYRYRYQRRSRSSSRSTEPSHSRDASPVGIKGFNTLPSTEISMYTLSRDPLKAATTPTATYNSDRDNSFLQVHNCIQKENKDSLHSNTANRRTTPV
# Biological target: T1, calpain-2
# Test: in vitro calpain-2 inhibition, succinic-Leu-Tyr-AMC substrate
# Format: biochemical
# Details: selectivity calpain-2 over calpain-1
# Experimental: Formula 1, where chiral center 1 is the L-form and chiral center 2 is a racemic mixture of D- and L- in this example was introduced at various concentrations (from 1 nM to 10 μM) into an in vitro mix comprising succinic-Leu-Tyr-AMC and calpain-1 or calpain-2 (Sasaki et al, 1984), and the kinetics of the loss of fluorescence were determined for each of the calpains (Powers et al, 2000). […] Therefore, the assessment of selectivity described herein was different than the prior teaching.
# Formula 1A, where chiral center 1 is the S-form and chiral center 2 is the S-form was separated from the S-R-form (Formula 1B) using methods that are well-known methods for separating diastereoisomers. Formula 1A, which is also referred to herein as compound 18A, in this example was introduced at various concentrations into an in vitro mix comprising succinic-Leu-Tyr-AMC and μ-calpain or m-calpain (Sasaki et al, 1984), and the kinetics of the loss of fluorescence were determined for each of the calpains.
molecule,measurement,value
B1,inhibits calpain-2 more than calpain-1 (Ki lower for calpain-2),approximately 100 fold

# Reference: patent publication US20190030114A1, “ISOFORM-SPECIFIC CALPAIN INHIBITORS, METHODS OF IDENTIFICATION, AND USES THEREOF” (WESTERN UNIVERSITY OF HEALTH SCIENCES, priority 2014, published 2019)
